assay: soluble on expression in E. coli; label from the status in PepcDB or PDB records

Sequence	soluble on expression in E. coli
MARPLKEGLDYFPLDVDADYDDKFQLIETLHGPTGFAIMIKLFMKIYSQNFYYKWTETEQILFAKRVNVDINTLKTVVNDCIKYDLFDNNLFSEFQILTSLGVQERYFTAIGRRKKQIVVLEYLLLDRPEVINLCPKIVFANINVVNDDINAEQEELMPALSAQTKGKESKVNESKAVVSEQEKLPEKIVKEKPTTTAYKFWEENVAITGLSEFDRELLKKLISLGGNELTVHAMKKAIELNRRRMKTVDTVLRGWLDNGVKTTAEADEQEKNWNGGAKKNARAEPAKQEIKISDQYNFGATRTD	not soluble
MARPNFRYTHYDLKELRAGTTLEISLSSVNNVRLMTGANFQRFTELLDFKYLGGVAKKSPIRIAVPETMHWHLIIDAEGHSGLAESSVKMLPAQPQATLTRKAS	soluble
MARSIDYGNLMHRAMRGLIQSVLEDVAEHGLPGAHHFFITFDTTHPDVAMADWLRARYPQEMTVVIQHWYENLSADDHGFSVTLNFGNQPEPLVIPFDAVRTFVDPSVEFGLRFETHEEDEEEETGGDEDPDGDDEPPRHDAQVVSLDKFRKAAALEHHHHHH	soluble
MASAIWYYTVLVAESVLGIVGLRLYEEPAYTVLDRPSDTIEIRRYAPRVAAEVDLERRGNADGQAFTLLFNYIAGANRGGSGTSERVAMTVPVDVARPAKIAMTAPVETATQDRMTRMRFFLPATFTADTAPKPSDERVQIVTVPEQTIATLRFSGTGRDLREREQQLIAALANTPWQPVGAPYGLFYDAPFTLPFVRRNEAAVEVAKRLEHHHHHH	not soluble
MASATLPRFDLMGWDKKDIADPYPVYRRYREAAPVHRTASGPGKPDTYYVFTYDDVVRVLSNRRLGRNARVASGDTDTAPVPIPTEHRALRTVVENWLVFLDPPHHTELRSLLTTEFSPSIVTGLRPRIAELASALLDRLRAQRRPDLVEGFAAPLPILVISALLGIPEEDHTWLRANAVALQEASTTRARDGRGYARAEAASQEFTRYFRREVDRRGGDDRDDLLTLLVRARDTGSPLSVDGIVGTCVHLLTAGHETTTNFLAKAVLTLRAHRDVLDELRTTPESTPAAVEELMRYDPPVQAVTRWAYEDIRLGDHDIPRGSRVVALLGSANRDPARFPDPDVLDVHRAAERQVGFGLGIHYCLGATLARAEAEIGLRALLDGIPALGRGAHEVEYADDMVFHGPTRLLLDLPDAALEHHHHHH	soluble
MASETENIKYEESFIKNTRGMKLFTCKWVPAKQEPKALVFICHGYAMECSITMNSTARRLVKAGFAVYGIDYEGHGKSDGLSAYVPNFDHLVDDVSTHYTSICEKEENKGKMRFLLGESMGGAVLLLLHRKKPQFWDGAVLVAPMCKIAEEMKPSPLVISILAKLSGVIPSWKIIPGQDIIETAFKQPEIRKQVRENPYCYKGRPRLKTAYELLRVSTDLEKRLNEVSLPFIVLHGEDDKVTDKAVSRQLYEVASSSDKTFKLYPGMWHGLLYGETPENIETVFADIIGWLDKKVADESGGFESELKRKNDGIPLKG	soluble
MASFIPNLPSWAKHVDLKFRSALVLSQLFTKSWGHPDVIKQMAKYRRDVMSKRLVMDYVKELNPKIDIVKKYSKNGVTSYEGFFASPHATLFPNHMPGNVGRAHFRAYLPQKPGPVCIHLAGTGDHSYFRRHYLLVDDMLKDGVGSILIQNPFYGDRKPPNQFRSSLENVTDLFVMGAALIAECNHLFNWSETLGYGPFAISGVSMGGFMAQLAGSNSQRPISIVPILAWTTASPSYTEGAISPAVNYSLLQKQLEDPHYVDKIRRIPNQNWLDKMREMTARNGDSEAKNMMRILMDDFTSLEFYPTPIDTSLCHVFLADQDQYVLRNQGTPTYQQLWPNVTVEMMEGYGHVTAYLSKHDLWRRRITELLRRQQQKTI	not soluble
MASGDITRYVITVTFHEDSLTEINELNNHLTRSGFLLTLTDDEGDVHELGTNTFGFVSAQSADEIKALVAGLAKSALDKDVDITVATWEAWSKNAQ	not soluble
MASHMERDPQVAGLKVPPHSIEAEQSVLGGLMLDNERWDDVAERVVADDFYTRPHRHIFTEMARLQESGSPIDLITLAESLERQGQLDSVGGFAYLAELSKNTPSAANISAYADIVRER	soluble
MASIKEELISAAESESQVMQIVQAALEGIDMDALTSMTPGLPQTVRQTAINSLLSSKKLAIQQAPGGVLRLKVNTSEQIAGTEEEQVIYSLIEESKTRGIWIKELREGSGLNQLQLRKTLKSLETKKLIKTIKAVGTTRKCYILFSIEPDMSLTGGTFYSDQQLDSELINTLISVCGSYAASRRKHAIDENPNNIQMQREASYIRPQEIAQFITEKRVLNVPLSLEDLERILEVAVLDGTIERRADGKIRACPPRSSISPLVSVPCAICPVVEDCRPGYVISPQSCDYMKNWLADL	not soluble
MASIKSYKLKNGQERWEYFVSNGRSNGTGRQQKIHKRGFRSHKEALKAAKIIEGQIASEEFVKENPQKMTISKFMNIWINEYKNNVKEGSRIVYRDAIRMYIDPYIGNYQLNKYKPADHQKFINSLFTNKELGKSKNGLSYNTVKIVNAALSNAFKKAQKLGYIKSNPTYFVEFPLDKVKEKTNKEKKLEFYTLEQENLFLDTARNFDDFMWYVFFLIIFDLGLRKGEVMALRWFNFDFRDNILTFDKQRLYRKEQPGQVILDDVKTDAGKRSLKMTNRVRNSVLELYSINYDLTSNVLPMTNSNQDFLFINHRGKNVGLPIRQRSVDTAWHRIIQKANLPKIRIHDGRHTNAARLRQAGVPLEDIKDMLGHKNVKTTEIYAHVSPEVKERAVNKLELYQMQHKKSGN	not soluble
MASINWSEISTVLIDMDGTILDLHFDNHFWLEHLPARYSEKMSISLDAAKAKLKADYLSVVGTIKWYCLDYWAEQTQMPITELKREIQHLIQLRTDARDFLIALKASGRDVVLVTNAHPESLSLKIERTQLDQYFDVLYSTHDFGVTKESQLLWQRLQEKHGFDCDSTLFIDDSIEILQSAQQYGIKHLLAVANPDSKKTANVITDFPAITSFDLLTAQLSKELINSTSN	not soluble
MASKDKEINNTIDAIEDKNFKQVYKDSSYISKSDNGEVEMTERPIKIYNSLGVKDINIQDRKIKKVSKNKKRVDAQYKIKTNYGNIDRNVQFNFVKEDGMWKLDWDHSVIIPGMQKDQSIHIENLKSERGKILDRNNVELANTGTAYEIGIVPKNVSKKDYKAIAKELSISEDYIKQQMDQNWVQDDTFVPLKTVKKMDEYLSDFAKKFHLTTNETESRNYPLEKATSHLLGYVGPINSEELKQKEYKGYKDDAVIGKKGLEKLYDKKLQHEDGYRVTIVDDNSNTIAHTLIEKKKKDGKDIQLTIDAKVQKSIYNNMKNDYGSGTAIHPQTGELLALVSTPSYDVYPFMYGMSNEEYNKLTEDKKEPLLNKFQITTSPGSTQKILTAMIGLNNKTLDDKTSYKIDGKGWQKDKSWGGYNVTRYEVVNGNIDLKQAIESSDNIFFARVALELGSKKFEKGMKKLGVGEDIPSDYPFYNAQISNKNLDNEILLADSGYGQGEILINPVQILSIYSALENNGNINAPHLLKDTKNKVWKKNIISKENINLLTDGMQQVVNKTHKEDIYRSYANLIGKSGTAELKMKQGETGRQIGWFISYDKDNPNMMMAINVKDVQDKGMASYNAKISGKVYDELYENGNKKYDIDE	soluble
MASNMDREMILADFQACTGIENIDEAITLLEQNNWDLVAAINGVIPQENGILQSEYGGETIPGPAFNPASHPASAPTSSSSSAFRPVMPSRQIVERQPRMLDFRVEYRDRNVDVVLEDTCTVGEIKQILENELQIPVSKMLLKGWKTGDVEDSTVLKSLHLPKNNSLYVLTPDLPPPSSSSHAGALQESLNQNFMLIITHREVQREYNLNFSGSSTIQEVKRNVYDLTSIPVRHQLWEGWPTSATDDSMCLAESGLSYPCHRLTVGRRSSPAQTREQSEEQITDVHMVSDSDGDDFEDATEFGVDDGEVFGMASSALRKSPMMPENAENEGDALLQFTAEFSSRYGDCHPVFFIGSLEAAFQEAFYVKARDRKLLAIYLHHDESVLTNVFCSQMLCAESIVSYLSQNFITWAWDLTKDSNRARFLTMCNRHFGSVVAQTIRTQKTDQFPLFLIIMGKRSSNEVLNVIQGNTTVDELMMRLMAAMEIFTAQQQEDIKDEDEREARENVKREQDEAYRLSLEADRAKREAHEREMAEQFRLEQIRKEQEEEREAIRLSLEQALPPEPKEENAEPVSKLRIRTPSGEFLERRFLASNKLQIVFDFVASKGFPWDEYKLLSTFPRRDVTQLDPNKSLLEVKLFPQETLFLEAKE	soluble
MASPLYLHSSDGPENLITNVQLKGENYEDWAKHVRNASRTKQKLGFIDGTLEKPTKEDDMEQ	not soluble
MASTKDEVVRMSVDEYWEDIKDDYLIQLANTDPNEVYPSNNPGPTTADGQINFECHCVGHLVGSPCGFEFREAITCQKTNSDGEIEQGACGKELMSFMECVTRTQCFGTGDNDKK	not soluble
MASTSKPAASTTAIKKYYFYVLLCADQTLYGGFTDNLQRRLATHNAGKGAKYTRVRSRRPLQLIYHETFTDKSSALKAEYAFKHQSRAAKLKYLSAHDVKILEHHHHHH	not soluble
MASVHGTTYELLRRQGIDTVFGNPGSNELPFLKDFPEDFRYILALQEACVVGIADGYAQASRKPAFINLHSAAGTGNAMGALSNAWNSHSPLIVTAGQQTRAMIGVEALLTNVDAANLPRPLVKWSYEPASAAEVPHAMSRAIHMASMAPQGPVYLSVPYDDWDKDADPQSHHLFDRHVSSSVRLNDQDLDILVKALNSASNPAIVLGPDVDAANANADCVMLAERLKAPVWVAPSAPRCPFPTRHPCFRGLMPAGIAAISQLLEGHDVVLVIGAPVFRYHQYDPGQYLKPGTRLISVTCDPLEAARAPMGDAIVADIGAMASALANLVEESSRQLPTAAPEPAKVDQDAGRLHPETVFDTLNDMAPENAIYLNESTSTTAQMWQRLNMRNPGSYYFCAAGGLGFALPAAIGVQLAEPERQVIAVIGDGSANYSISALWTAAQYNIPTIFVIMNNGTYGALRWFAGVLEAENVPGLDVPGIDFRALAKGYGVQALKADNLEQLKGSLQEALSAKGPVLIEVSTVSPVKHHHHHH	soluble
MATARTARSRRKVRKVRDKWKEKVWYEIYATPEFGGVFIGYTPANDPSLVLGRVAETSLRDLTGDPTKHMHRVYFKIFGVTGNKAIAQYYGHDTTREFMKSQIRRRRSRIDAILDVKTQDGHKIRTKAMVLTAYRANTKQKSDIRKKMEEIIKAMAKEKTFPQYVQAMLFGEMAEKIKNECKKIFPIKNVIIYKSEVLSLAKKEENEGFVKEAEEETAEAQELEHHHHHH	soluble
MATESALIKVHVKSPSNKYDVEIAADASVSELKDKVLVFVPTANKEQVCIIYTGKILKDEETLTQHKIADGHTVHLVIRNQARPTPAPAAATPTASSAPSSNPTPSSQPNPTNNPFAAMGGMGSPADILNNPDAMRSVMDNPITQQLLGNPEFMRTIIQSNPQFQALIERNPEVGHILNDPNVMRQTMEMIRNPNMFQEMMRNHDQAIRNLQGIPGGEAALERLYNDVQEPLLNSATNSLSGNPFASLRGDQSSEPRVDRAGQENNEALPNPWASNANQATNNQSNNRSADFNSLLDSPGISSLMEQMMSNPSMQASMFSPEVINSIRQNMSNNPGLIDSIVGQIPSARDNPQISEGIRRSFPQMLNMMSDPSVMEAMRNPRVSEAFRQIQEGFSTLRREAPQLLNLFQAGAMGGGAFGSDANASSAGANSANGLADLFNSMNMGGGRPSSTAAPVNPEQTYASQLEQLQSMGFSDRARNVAALTATFGDLNAAVERLLNSP	not soluble
MATGLGFFKLSFLLSLLSGGSDLLGPDAESGVAQIGKFPPSCNRIECPSYELVHSGNGYEIRRYNNTVWVSTEPIPDISLVDATRTAFFQLFAYIQGKNEYHQKIEMTAPVISQVSPSDGPFCESSFTVSFYVPKKNQPDPAPSENLHIQKWNSRYVAVRQFSGFVSDDSIGEQAAALDSSLKGTAWANAIAKSKEDGGVGSDSAYTVAQYNSPFEFSGRVNEIWLPFELDV	not soluble

From the DeepSol protein solubility set
